We go through 1 substance from publication PMC11546298.

This test concerns the target eYFP-MotD (P. aeruginosa). The test is described as follows: FRET or BRET. Background: BRET reads energy transfer from a luciferase to a nearby fluorophore.

Substance “eCFP-MotY (from UniProt A0A0H2ZD91 1-321) (natural protein)” gave an FRET efficiency (E) of 1.54%.
